Assay results as given in article PMC11468923, “Mechanism of degrader-targeted protein ubiquitinability” (Science Advances, 2024).

B1: UBE2R1(C93K, S138C, C191S, C223S) (enzyme, human, UniProt P49427 1-236, looked up)
chain: MARPLVPSSQKALLLELKGLQEEPVEGFRVTLVDEGDLYNWEVAIFGPPNTYYEGGYFKARLKFPIDYPYSPPAFRFLTKMWHPNIYETGDVKISILHPPVDDPQSGELPSERWNPTQNVRTILLSVISLLNEPNTFCPANVDASVMYRKWKESKGKDREYTDIIRKQVLGTKVDAERDGVKVPTTLAEYSVKTKAPAPDEGSDLFYDDYYEDGEVEEEADSSFGDDEDDSGTEES
modifications: K93 (C93K) isopeptide-linked to the C terminus of donor ubiquitin; C138 (S138C) cross-linked by BMOE to Ub(K48C,G76S)-Brd4^BD2
notes: UBE2R1 (also known as Cdc34), human, full length; prepared by the same method as UBE2R1(C93K); Stood in the closed cryo-EM sample as part of the cross-linked conjugate m8; also called the E2; source: E. coli BL21(DE3) Rosetta II, purified (His-Trap, ULP1, SEC)
B2: UBE2R1(C93K) (enzyme, human, UniProt P49427 1-236, looked up)
chain: MARPLVPSSQKALLLELKGLQEEPVEGFRVTLVDEGDLYNWEVAIFGPPNTYYEGGYFKARLKFPIDYPYSPPAFRFLTKMWHPNIYETGDVKISILHPPVDDPQSGELPSERWNPTQNVRTILLSVISLLNEPNTFSPANVDASVMYRKWKESKGKDREYTDIIRKQVLGTKVDAERDGVKVPTTLAEYCVKTKAPAPDEGSDLFYDDYYEDGEVEEEADSCFGDDEDDSGTEES
modifications: K93 (C93K) isopeptide-linked to the C terminus of ^15N-labeled ubiquitin
notes: UBE2R1 (also known as Cdc34), human, full length; also called Cdc34 C93K; the E2; source: E. coli BL21(DE3) Rosetta II, purified (His-Trap, ULP1, SEC)

Assays:
[1] = target: T1, wild-type ubiquitin (donor ubiquitin, Ub^D) (human, UniProt P0CG48 1-76, C terminus isopeptide-linked to K93 of UBE2R1(C93K, S138C, C191S, C223S)); assay: cryo-EM structure; closed cross-linked sample: 6 uM NEDD8-CRL2^VHL (1 equiv), MZ1 (1.5 equiv) and Brd4^BD2-Ub(G76S,K48C)-UBE2R1(C93K, S138C, C191S, C223S)-Ub (1.5 equiv), 10 min at 4 C; 20 mM Hepes, 150 mM NaCl, 0.5 mM TCEP, pH 7.5; Krios 300 keV; ~3.7 A; settings: both partners purified
T1 construct: wild-type ubiquitin, the cut product of its precursor; Stood in the closed cryo-EM sample as part of the cross-linked conjugate m8

[2] = target: T2, ^15N-labeled ubiquitin (human wild-type Ub residues 1 to 76) (human, UniProt P0CG48 1-76, uniformly ^15N-labeled; C terminus isopeptide-linked to K93 of UBE2R1(C93K) in the conjugate sample); assay: NMR 15N-1H HSQC chemical shift perturbation; ^15N-Ub free against ^15N-Ub isopeptide-linked to UBE2R1(C93K); 150 uM, 298 K, 600 MHz; 20 mM sodium phosphate, 150 mM NaCl, 0.5 mM TCEP, 5% D2O, pH 7.0; settings: both partners purified
T2 construct: ubiquitin, human wild type, residues 1 to 76; also called ^15N-Ub; Ub(^15N); source: E. coli BL21(DE3) Rosetta II, ^15N autoinducing media, purified (His-Trap, TEV, SEC); not shown: His6, N-terminal, cleaved

| Binder | binding result [1] | binding result [2] |
| --- | --- | --- |
| B1 | binds | – |
| B2 | – | binds |
